Results on one molecule are retold here after patent US20150166643A1 (Alexion, published 2015).

The experiment has as its target T1, human factor B (purified, Complement Technology A135) (human, UniProt P00751 26-764).
T1 construct: also called fB; human complement factor B
The experiment can be described thus: BLI (Octet), biotinylated factor B on streptavidin biosensor, Fab at 6.25 nM. The method, then: Binding kinetics of TA106 and TA106 S33A Fab (CLS016) to Factor B were analyzed using a FortéBio® Octet® biosensor (FortéBio, Inc.) in a similar protocol as described previously. In one exemplary experiment, Factor B (Complement Technology) was biotinylated at a 1:10 ratio and coupled to a streptavidin biosensor at a concentration of 5 μg/mL for a loading time of 600 seconds. Biosensors were briefly dipped in 1×KB as a wash for 30 seconds. Associations with a titration series of Fab with a concentration range from 100 to 3 nM (diluted in 1×KB) were carried out for 600 seconds. Fabs were dissociated from the biosensor by immersing the biosensor in 1×KB during the 600 second dissociation phase. As depicted in FIGS. 19 and 20, both TA106 Fab and TA106-derivative S33A Fab (CLS016) bound to Factor B at various concentrations, resulting in nearly identical association and dissociation profiles. Kinetic assessments using partial local fit parameters yielded identical values for KD/kₐ/Kd at each concentration tested.

T1 sequence (P00751 26-764): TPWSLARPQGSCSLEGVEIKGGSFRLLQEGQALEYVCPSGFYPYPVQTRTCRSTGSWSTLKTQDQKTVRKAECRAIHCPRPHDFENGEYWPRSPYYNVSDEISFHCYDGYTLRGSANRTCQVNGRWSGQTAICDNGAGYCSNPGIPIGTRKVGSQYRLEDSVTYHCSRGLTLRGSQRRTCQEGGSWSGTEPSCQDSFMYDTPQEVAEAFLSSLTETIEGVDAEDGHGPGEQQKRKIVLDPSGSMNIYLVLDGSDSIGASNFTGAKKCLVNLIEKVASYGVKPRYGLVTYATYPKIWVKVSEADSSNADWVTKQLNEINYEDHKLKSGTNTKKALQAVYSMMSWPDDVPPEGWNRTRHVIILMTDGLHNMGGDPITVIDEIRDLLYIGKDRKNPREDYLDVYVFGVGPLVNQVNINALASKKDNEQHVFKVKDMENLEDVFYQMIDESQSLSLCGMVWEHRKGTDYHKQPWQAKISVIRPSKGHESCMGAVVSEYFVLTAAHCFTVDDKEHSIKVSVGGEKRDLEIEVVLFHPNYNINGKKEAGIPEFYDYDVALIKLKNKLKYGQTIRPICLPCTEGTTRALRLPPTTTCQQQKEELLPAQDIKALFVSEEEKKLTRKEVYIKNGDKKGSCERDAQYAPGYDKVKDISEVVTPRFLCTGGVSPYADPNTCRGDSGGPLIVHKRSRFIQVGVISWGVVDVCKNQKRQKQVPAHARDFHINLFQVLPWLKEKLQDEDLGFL

B1: TA106 Fab (humaneered anti-factor B Fab, expressed in E. coli) (Fab, V domains shown)
VH: QVQLVQSGAEVKKPGASVKVSCKASGYSFTDYYMTWVRQAPGQGLEWMGWINPNSGGTKYAQKFQGRVTMTRDTSISTAYMELSRLRSDDTAVYYCARGYYANSAWFAYWGQGTLVTVSS
VL: DIVMTQSPDSLAVSLGERATINCKSSQSLLNSSTSKNYLAWYQQKPGQPPKLLIYWASTRESGVPDRFSGSGSGTDFTLTISSLQAEDVAVYYCKQVYNLPWTFGQGTKLEIKR
notes: Fab made in E. coli by Xoma, not glycosylated; also called Fab TA106; TA106 wild type Fab
In the case of B1, the Kd – broadly, the equilibrium constant for the complex coming apart – came out at 41.6 nM; the off-rate constant (koff) (commonly a measure of how fast the partners let go of each other) was 0.00294 s⁻¹; the kon (usually the second-order rate constant of association) worked out at 70600 M⁻¹ s⁻¹.
